Results taken from publication PMC3315326.

Target: DNMT1 (UniProt P26358 1-1616)
Test: SPR

Chain of DNMT1 (P26358 whole entry): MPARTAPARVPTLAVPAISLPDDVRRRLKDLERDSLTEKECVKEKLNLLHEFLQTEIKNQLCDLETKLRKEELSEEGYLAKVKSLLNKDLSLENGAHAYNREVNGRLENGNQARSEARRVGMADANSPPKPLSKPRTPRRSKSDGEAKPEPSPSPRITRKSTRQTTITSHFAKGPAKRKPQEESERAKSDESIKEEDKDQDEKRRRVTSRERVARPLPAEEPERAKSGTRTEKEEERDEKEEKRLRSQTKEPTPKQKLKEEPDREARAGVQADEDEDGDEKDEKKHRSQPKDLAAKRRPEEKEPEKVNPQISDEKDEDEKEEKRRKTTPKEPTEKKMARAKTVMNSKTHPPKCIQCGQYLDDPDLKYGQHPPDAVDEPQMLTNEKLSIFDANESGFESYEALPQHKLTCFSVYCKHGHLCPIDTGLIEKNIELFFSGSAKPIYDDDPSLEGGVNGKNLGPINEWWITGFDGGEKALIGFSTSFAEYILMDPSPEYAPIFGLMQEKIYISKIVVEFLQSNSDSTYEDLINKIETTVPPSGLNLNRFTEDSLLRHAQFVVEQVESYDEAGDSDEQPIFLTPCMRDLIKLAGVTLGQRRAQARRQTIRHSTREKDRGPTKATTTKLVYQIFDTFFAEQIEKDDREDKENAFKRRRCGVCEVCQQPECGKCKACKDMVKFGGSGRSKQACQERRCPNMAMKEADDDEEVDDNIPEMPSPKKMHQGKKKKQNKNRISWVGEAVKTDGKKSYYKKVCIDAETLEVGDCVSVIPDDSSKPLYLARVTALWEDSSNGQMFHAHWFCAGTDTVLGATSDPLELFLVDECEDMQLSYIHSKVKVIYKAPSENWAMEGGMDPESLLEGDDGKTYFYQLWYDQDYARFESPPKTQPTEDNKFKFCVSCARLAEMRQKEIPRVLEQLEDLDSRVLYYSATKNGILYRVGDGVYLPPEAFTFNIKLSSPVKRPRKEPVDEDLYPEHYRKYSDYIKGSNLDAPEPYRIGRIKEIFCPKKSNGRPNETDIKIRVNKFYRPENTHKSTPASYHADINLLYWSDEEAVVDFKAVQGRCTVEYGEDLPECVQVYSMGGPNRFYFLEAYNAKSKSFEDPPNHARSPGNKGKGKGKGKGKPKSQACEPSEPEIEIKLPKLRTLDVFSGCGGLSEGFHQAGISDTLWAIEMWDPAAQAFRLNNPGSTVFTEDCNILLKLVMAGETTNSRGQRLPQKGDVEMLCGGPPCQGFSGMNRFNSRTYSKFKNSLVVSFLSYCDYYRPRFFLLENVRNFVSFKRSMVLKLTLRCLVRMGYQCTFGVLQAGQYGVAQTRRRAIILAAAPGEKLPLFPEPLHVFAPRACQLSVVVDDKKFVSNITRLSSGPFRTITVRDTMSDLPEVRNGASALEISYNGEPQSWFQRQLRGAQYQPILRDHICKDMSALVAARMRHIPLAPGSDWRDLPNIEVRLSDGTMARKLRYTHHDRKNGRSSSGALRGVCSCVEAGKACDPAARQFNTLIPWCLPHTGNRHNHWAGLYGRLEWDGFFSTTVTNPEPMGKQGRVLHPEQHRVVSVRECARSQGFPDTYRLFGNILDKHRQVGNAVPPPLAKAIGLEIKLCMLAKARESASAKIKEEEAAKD

B1: hemimethylated 30-bp oligo (D1subHMF/D1subUMF) (dsDNA)
DNA 1: GAAGCTGGGACTTCCGGCAGGAGAGTGCAA
DNA 2: TTGCACTCTCCTGCCGGAAGTCCCAGCTTC
modifications: 5-methylcytosine at position 15 of strand 1
Kd: 1070 nM
